Assay results published in patent US8815803B2, “Method for increasing body height comprising systemic administration of CNP-53” (priority 2004, dated 2014).
Where “and” joins values, the source holds several entries; their conditions need not be identical. Equal values may be shown once. Entries after “also recorded” stand apart in the source; their conditions may differ.

Assays:
Format in all cases: in vivo
[1] = CNP expression in CNP transgenic mouse: CNP-22 EIA, liver
Procedure: (§1) A CNP-22 EIA measuring kit (PHOENIX PHARMACEUTICALS INC.) was used for the determination of a CNP level.
(§2) Three each of 7-week old male and female CNP transgenic mice, as well as 3 each of male and female normal litter of mice, were euthanized by exsanguination from the postcava under ether anesthesia.
The liver was homogenized in a Waring blender (Physcotron), and after centrifugation (at 2,000 rpm for 5 minutes), the supernatant was used as a sample for the determination of CNP-22 levels.

[2] = system: growth cartilage of femora; test: Histological analysis of the growth cartilage of CNP transgenic mouse; conditions: 9-week old female CNP transgenic mice, patellar surface femur
Excerpt: For the purpose of analyzing the thickness of the growth cartilage histologically, 5 each of 9-week old female CNP transgenic mice and female normal litter of mice were euthanized by exsanguination from the postcava under ether anesthesia, and the thigh bone was fixed in 20% formalin for a week. After soaking in a 20% aqueous solution of EDTA-4Na (pH 7.4) (Junsei Chemical Co., Ltd., Japan) for decalcification, the patellar surface femur was subjected to a midline sagittal section and embedded in paraffin by conventional method to prepare a paraffin block. A 4 μm-thick section was further sectioned with a microtome to prepare paraffin sections, which were stained with hematoxylin and eosin. For the thickness of the growth cartilage, one microscopic field observed using an objective lens (×10) was incorporated into an image analysis software (IPAP, Sumika Technoservice, Japan), and each thickness of the resting layer, proliferating layer and hypertrophic layer was measured at 5 points in the microscopic field using the same software, and the calculated mean value thereof was taken as the thickness of each layer of the individual. The total of the three layers was regarded as the thickness of the growth cartilage of the individual. […]

[3] = system: mice; test: Growth curve of CNP transgenic mouse (naso-anal length)
Procedure: The naso-anal lengths (in cm) of female and male CNP transgenic mice, as well as those of female and male normal littermates, were measured on time over a period of 2 to 9 weeks (FIG. 4).

[4] = CNP expression in CNP transgenic mouse: CNP-22 EIA, blood plasma
Procedure: as §1, §2
One mg of ethylenediaminetetraacetate-4Na (Junsei Chemical Co., Ltd., Japan) and 2 trypsin-inhibition units of aprotinin (Sigma) were added to the drawn blood and agitated to separate blood plasma, which was used as a sample for the determination of CNP-22 levels.

[5] = 7-week old CNP transgenic mice, individual animal, CNP-22 EIA
[6] = CNP transgenic mouse vs wild type, means compared

Substance: CNP: C-type natriuretic peptide, a GC-B activator, overexpressed from murine CNP cDNA transgene in mice; measured with CNP-22 EIA kit
- CNP level, Liver [1, 5]: 370.0 ng/g tissue and 206.7 ng/g tissue and 293.3 ng/g tissue
- CNP level, Liver, mean ± SD ([1]; 7-week old CNP transgenic mice, mean ± SD of No. 1-3, p < 0.01 vs wild type): 290 ± 81.7 ng/g tissue
- CNP level in the liver, higher than the wild type [1, 6]: about 10 fold
- thickness of resting layer, proliferating layer, hypertrophic layer and total thickness of growth cartilage vs wild type [2]: greater with statistical significance; also recorded: significantly greater
- naso-anal length vs normal litter (WT) ([3]; female CNP transgenic mice, at 2 weeks old and thereafter): significantly greater
- naso-anal length vs normal littermates ([3]; female and male CNP transgenic mice, over a period of 2 to 9 weeks): greater than those of the normal littermates; also recorded: greater than those of the normal litter
- naso-anal length vs normal litter (WT) ([3]; male CNP transgenic mice, at 4 weeks old and thereafter): significantly greater
- CNP level, Plasma [4, 5]: 11.1 ng/mL and 2.6 ng/mL and 10.3 ng/mL
- CNP level, Plasma, mean ± SD ([4]; 7-week old CNP transgenic mice, mean ± SD of No. 1-3): 8.0 ± 4.7 ng/mL
- CNP level in blood plasma, higher than the wild type [4, 6]: about 24 fold
